Source: PMC9122904, “Insights into the client protein release mechanism of the ATP-independent chaperone Spy” (Nature Communications, 2022)

Columns and labels:
Experiment in all cases: BLI; Octet RED96; client biotinylated and loaded on streptavidin sensors; Spy or Spy variant in solution at 0.25, 0.5, 1, 1.5 and 2 μM; 40 mM HEPES, 150 mM NaCl, pH 7.5; Kd calculated as koff/kon
Conditions in all cases: both partners purified
Spy_(1-124) = molecular target: T1, Spy_(1-124) (UniProt P77754 24-147)
T1 construct: source: E. coli BL21 (DE3), purified (Ni-NTA, cation exchange, SEC); not shown: His6, N-terminal, cleaved; SUMO, N-terminal, cleaved
T1 sequence (looked up): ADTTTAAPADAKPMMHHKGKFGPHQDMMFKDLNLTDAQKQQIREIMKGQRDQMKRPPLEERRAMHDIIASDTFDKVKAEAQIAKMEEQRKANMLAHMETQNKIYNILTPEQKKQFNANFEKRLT
Summary of the method: (§1)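 Biolayer interferometry used an Octet RED96: client proteins biotinylated with EZ-link NHS-biotin (1:1 molar ratio) were loaded on streptavidin sensors, dipped into 40 mM HEPES, 150 mM NaCl, pH 7.5 containing Spy protein at 0.25, 0.5, 1, 1.5 and 2 μM, then moved to Spy-free buffer. Wavelength-shift association and dissociation curves were fitted in SigmaPlot 12.0, giving observed association rate and koff. kon came from observed rate versus Spy concentration; Kd was koff/kon.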

Spy_(29-130) = molecular target: T2, Spy_(29-130) (UniProt P77754 52-153)
T2 construct: Spy chaperone, residues 29-130; source: E. coli BL21 (DE3), purified (Ni-NTA, cation exchange, SEC); not shown: His6, N-terminal, cleaved; SUMO, N-terminal, cleaved
T2 sequence (looked up): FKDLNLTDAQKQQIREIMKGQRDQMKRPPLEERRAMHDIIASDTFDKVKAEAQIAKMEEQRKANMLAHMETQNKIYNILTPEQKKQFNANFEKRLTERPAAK
Summary of the method: as §1

Spy_(24-127) = molecular target: T3, Spy_(24-127) (UniProt P77754 47-150)
T3 construct: Spy chaperone, residues 24-127; source: E. coli BL21 (DE3), purified (Ni-NTA, cation exchange, SEC); not shown: His6, N-terminal, cleaved; SUMO, N-terminal, cleaved
T3 sequence (looked up): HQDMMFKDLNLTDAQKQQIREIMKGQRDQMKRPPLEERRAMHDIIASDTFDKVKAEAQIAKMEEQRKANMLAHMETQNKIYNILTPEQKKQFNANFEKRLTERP
Summary of the method: as §1

[1] = molecular target: T4, Spy wild type (Spy_(1-138)) (UniProt P77754 24-161)
T4 construct: Spy, ATP-independent periplasmic chaperone; also called WT; wt; source: E. coli BL21 (DE3), purified (Ni-NTA, cation exchange, SEC); not shown: His6, N-terminal, cleaved; SUMO, N-terminal, cleaved
T4 sequence (looked up): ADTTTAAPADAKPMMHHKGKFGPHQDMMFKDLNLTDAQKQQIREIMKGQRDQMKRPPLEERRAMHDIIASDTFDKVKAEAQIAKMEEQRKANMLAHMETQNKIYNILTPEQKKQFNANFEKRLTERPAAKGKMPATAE
Summary of the method: as §1

Spy_(29-127) = molecular target: T5, Spy_(29-127) (UniProt P77754 52-150)
T5 construct: Spy chaperone, residues 29-127; source: E. coli BL21 (DE3), purified (Ni-NTA, cation exchange, SEC); not shown: His6, N-terminal, cleaved; SUMO, N-terminal, cleaved
T5 sequence (looked up): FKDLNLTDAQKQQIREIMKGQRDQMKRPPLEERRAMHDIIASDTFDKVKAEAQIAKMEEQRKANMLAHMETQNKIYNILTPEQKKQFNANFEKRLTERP
Summary of the method: as §1

Spy_(27-127) = molecular target: T6, Spy_(27-127) (UniProt P77754 50-150)
T6 construct: Spy chaperone, residues 27-127; source: E. coli BL21 (DE3), purified (Ni-NTA, cation exchange, SEC); not shown: His6, N-terminal, cleaved; SUMO, N-terminal, cleaved
T6 sequence (looked up): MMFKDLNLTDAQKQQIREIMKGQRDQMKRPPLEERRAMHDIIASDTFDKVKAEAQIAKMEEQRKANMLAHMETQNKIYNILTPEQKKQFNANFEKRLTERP
Summary of the method: as §1

Spy_(24-130) = molecular target: T7, Spy_(24-130) (UniProt P77754 47-153)
T7 construct: Spy chaperone, residues 24-130; source: E. coli BL21 (DE3), purified (Ni-NTA, cation exchange, SEC); not shown: His6, N-terminal, cleaved; SUMO, N-terminal, cleaved
T7 sequence (looked up): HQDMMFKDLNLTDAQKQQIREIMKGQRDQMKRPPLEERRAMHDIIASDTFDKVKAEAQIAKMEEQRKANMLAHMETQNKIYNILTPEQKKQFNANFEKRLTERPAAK
Summary of the method: as §1

B1: Im7 H40W L53A I54A (natural protein)
chain: MELKNSISDYTEAEFVQLLKEIEKENVAATDDVLDVLLEWFVKITEHPDGTDAAYYPSDNRDDSPEGIVKEIKEWRAANGKPGFKQG
modifications: biotin (EZ-link NHS-biotin, 1:1 molar ratio of biotin to protein)
notes: Im7 (colicin E7 immunity protein) with H40W L53A I54A; Spy was made with an N-terminal His6-SUMO tag that was cleaved; also called Im7AAW; partially folded client; source: purified by a similar procedure to Spy
- Kd (Spy_(1-124)): 0.93 µM
- Kd (Spy_(29-130)): 0.333 µM
- Kd (Spy_(24-127)): 1.73 µM
- Kd [1]: 0.643 µM
- Kd (Spy_(29-127)): 0.31 µM
- Kd (Spy_(27-127)): 0.3 µM
- Kd (Spy_(24-130)): 1.46 µM
